Experimental findings from PMC7948415 are described below.

For one experiment, the target named is properdin (human) (UniProt P27918). As to the kind of experiment: SPR; Biacore T100; properdin amine-coupled to a CM5 chip (5000 RU); C3b (20 μg/ml), factor B (20 μg/ml) and factor D (2 μg/ml) in HBS/MgCl2 injected at 30 μl/min for 120 s without or with SG7.AF, albicin or anophensin (Fig. 9C: 56.8 nM C3b, 107.5 nM factor B, 41.7 nM factor D, inhibitors 1 μM); dissociation at 1 μM inhibitor fitted to a double exponential decay.

The target in experiment [1] is variant of anophensin with the N-terminus extended by the retention of three amino acids from the signal peptide (Anopheles stephensi) (UniProt A5HUP6). As to the kind of experiment: crystal structure; lengthened anophensin, space group P2_(1)2_(1)2, three monomers in the asymmetric unit, SAD with a selenomethionine derivative.

properdin (human), sequence (P27918 28-469): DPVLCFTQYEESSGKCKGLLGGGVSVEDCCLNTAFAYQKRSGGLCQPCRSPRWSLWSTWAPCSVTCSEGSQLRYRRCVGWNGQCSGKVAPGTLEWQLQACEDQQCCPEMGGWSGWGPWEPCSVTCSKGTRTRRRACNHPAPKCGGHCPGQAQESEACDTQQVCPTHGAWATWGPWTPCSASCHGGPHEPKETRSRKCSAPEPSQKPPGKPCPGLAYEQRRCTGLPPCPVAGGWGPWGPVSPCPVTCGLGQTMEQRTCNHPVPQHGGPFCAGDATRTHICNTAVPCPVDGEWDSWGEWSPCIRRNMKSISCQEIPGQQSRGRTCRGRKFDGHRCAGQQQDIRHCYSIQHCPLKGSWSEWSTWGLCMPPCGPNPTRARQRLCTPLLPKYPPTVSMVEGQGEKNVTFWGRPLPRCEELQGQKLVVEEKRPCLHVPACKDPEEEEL

For “SG7.AF-bound C3bBb complex (from UniProt P01024 749-1663; P01024 749-1663; P00751 260-764; C0HMB5 1-119)”, in the experiment with properdin (human), the koff, fast phase of a double exponential decay is 0.02 s⁻¹ and the koff, slow phase of a double exponential decay amounted to 0.003 s⁻¹.
The matching figures for “albicin-bound C3bBb complex (from UniProt P01024 749-1663; P01024 749-1663; P00751 260-764; A0A1Y9G8D0 27-142)”: 0.02 s⁻¹ and 0.003 s⁻¹.
A word on the stoichiometry N: it is the number of molecules, sites or subunits per partner or assembly. With “variant of anophensin with the N-terminus extended by the retention of three amino acids from the signal peptide (from UniProt A5HUP6 28-142) (natural protein)”, the stoichiometry N in experiment [1] was determined as 2.
